Laboratory results from the supplement of paper PMC10065799, “High-throughput profiling of sequence recognition by tyrosine kinases and SH2 domains using bacterial peptide display” (eLife, 2023).

Assays:
[1] = biological target: Grb2 SH2 (UniProt P62993); experiment: SH2 binding enrichment of the phosphorylated peptide, bacterial display (enrichment ratio); higher = better substrate or ligand; peptides without Tyr show the background
[2] = biological target: SHP2-C SH2; experiment: as above
[3] = biological target: c-Src SH2; experiment: as above
[4] = tested on: c-Src; experiment: phosphorylation enrichment, bacterial display (enrichment ratio); higher = better substrate or ligand; peptides without Tyr show the background
[5] = tested on: Fer (mouse); experiment: as above
[6] = tested on: AncSZ; experiment: as above
[7] = biological target: FGFR3 (UniProt P22607); experiment: as above
[8] = biological target: FGFR1 (UniProt P11362); experiment: as above
[9] = tested on: c-Abl (mouse); experiment: as above
[10] = biological target: Fyn (UniProt P06241); experiment: as above
[11] = biological target: Hck (UniProt P08631); experiment: as above
[12] = biological target: EPHB2 (UniProt P29323); experiment: as above
[13] = biological target: EPHB1 (UniProt P54762); experiment: as above
[14] = biological target: Jak2 (UniProt O60674); experiment: as above
[15] = biological target: Fes (UniProt P07332); experiment: as above
[16] = biological target: MERTK (UniProt Q12866); experiment: as above
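Throughout, for SH2 binding enrichment of the phosphorylated peptide, bacterial display: peptide library displayed on the E. coli surface as eCPX fusions, selected cells deep-sequenced, score is each peptide's frequency after selection divided by its frequency in the input.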
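Throughout, for phosphorylation enrichment, bacterial display: 11-residue human phosphosite peptides and single-mutation variants displayed on the E. coli surface, counted by deep sequencing, each peptide's frequency after selection divided by its frequency in the unselected input library; frequency after pTyr selection over input frequency; kinase dosed for 20-30% of maximal phosphorylation in three min.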

MERTK, sequence (Q12866 whole entry, looked up, the tested form may be a part): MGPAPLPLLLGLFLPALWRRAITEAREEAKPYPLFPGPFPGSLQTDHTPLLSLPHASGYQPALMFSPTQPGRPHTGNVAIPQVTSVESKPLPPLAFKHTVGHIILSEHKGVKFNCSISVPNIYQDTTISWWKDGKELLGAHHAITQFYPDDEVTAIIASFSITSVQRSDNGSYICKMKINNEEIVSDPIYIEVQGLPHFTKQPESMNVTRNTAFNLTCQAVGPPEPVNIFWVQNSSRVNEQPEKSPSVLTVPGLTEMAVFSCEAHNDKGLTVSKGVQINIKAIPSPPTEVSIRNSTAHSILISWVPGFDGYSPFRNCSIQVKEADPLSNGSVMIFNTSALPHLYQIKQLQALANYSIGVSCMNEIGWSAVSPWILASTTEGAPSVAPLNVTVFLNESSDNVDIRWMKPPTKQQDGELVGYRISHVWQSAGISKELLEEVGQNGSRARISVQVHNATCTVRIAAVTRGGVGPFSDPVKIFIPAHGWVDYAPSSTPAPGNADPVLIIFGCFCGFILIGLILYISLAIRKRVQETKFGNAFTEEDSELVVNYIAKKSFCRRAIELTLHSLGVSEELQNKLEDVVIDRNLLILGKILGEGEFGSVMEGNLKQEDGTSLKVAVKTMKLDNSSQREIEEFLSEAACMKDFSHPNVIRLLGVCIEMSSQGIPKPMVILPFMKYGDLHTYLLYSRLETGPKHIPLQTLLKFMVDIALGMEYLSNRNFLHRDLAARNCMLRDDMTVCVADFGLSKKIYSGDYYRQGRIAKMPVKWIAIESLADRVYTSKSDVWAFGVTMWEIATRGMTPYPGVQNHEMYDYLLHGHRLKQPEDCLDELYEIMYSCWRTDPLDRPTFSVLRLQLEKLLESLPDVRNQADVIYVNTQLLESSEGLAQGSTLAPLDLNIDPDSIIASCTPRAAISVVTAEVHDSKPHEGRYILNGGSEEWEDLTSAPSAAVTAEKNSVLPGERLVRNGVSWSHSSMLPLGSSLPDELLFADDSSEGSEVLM
FGFR1, sequence (P11362 whole entry, looked up): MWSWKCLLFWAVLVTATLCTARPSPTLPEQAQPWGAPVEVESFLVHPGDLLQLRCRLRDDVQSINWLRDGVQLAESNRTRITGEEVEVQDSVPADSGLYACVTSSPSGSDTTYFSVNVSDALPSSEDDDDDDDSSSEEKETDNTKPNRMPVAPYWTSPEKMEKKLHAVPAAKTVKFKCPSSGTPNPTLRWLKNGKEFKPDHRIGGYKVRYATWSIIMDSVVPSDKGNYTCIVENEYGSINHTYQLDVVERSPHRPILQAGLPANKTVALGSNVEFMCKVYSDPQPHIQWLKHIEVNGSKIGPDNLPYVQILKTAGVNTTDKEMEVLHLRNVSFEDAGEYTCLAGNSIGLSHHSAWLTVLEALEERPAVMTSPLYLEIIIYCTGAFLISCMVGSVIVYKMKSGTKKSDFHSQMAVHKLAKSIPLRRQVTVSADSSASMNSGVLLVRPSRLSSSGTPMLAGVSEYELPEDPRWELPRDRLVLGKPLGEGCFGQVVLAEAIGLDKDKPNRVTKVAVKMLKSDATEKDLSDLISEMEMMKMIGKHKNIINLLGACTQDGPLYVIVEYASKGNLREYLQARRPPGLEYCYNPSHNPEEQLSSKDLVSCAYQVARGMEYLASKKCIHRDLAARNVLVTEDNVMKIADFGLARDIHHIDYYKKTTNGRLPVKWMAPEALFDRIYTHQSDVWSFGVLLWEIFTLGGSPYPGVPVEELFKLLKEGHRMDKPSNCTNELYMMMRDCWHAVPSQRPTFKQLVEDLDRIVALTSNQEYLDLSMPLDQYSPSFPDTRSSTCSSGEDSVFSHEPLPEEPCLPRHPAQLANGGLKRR
Fes, sequence (P07332 whole entry, looked up): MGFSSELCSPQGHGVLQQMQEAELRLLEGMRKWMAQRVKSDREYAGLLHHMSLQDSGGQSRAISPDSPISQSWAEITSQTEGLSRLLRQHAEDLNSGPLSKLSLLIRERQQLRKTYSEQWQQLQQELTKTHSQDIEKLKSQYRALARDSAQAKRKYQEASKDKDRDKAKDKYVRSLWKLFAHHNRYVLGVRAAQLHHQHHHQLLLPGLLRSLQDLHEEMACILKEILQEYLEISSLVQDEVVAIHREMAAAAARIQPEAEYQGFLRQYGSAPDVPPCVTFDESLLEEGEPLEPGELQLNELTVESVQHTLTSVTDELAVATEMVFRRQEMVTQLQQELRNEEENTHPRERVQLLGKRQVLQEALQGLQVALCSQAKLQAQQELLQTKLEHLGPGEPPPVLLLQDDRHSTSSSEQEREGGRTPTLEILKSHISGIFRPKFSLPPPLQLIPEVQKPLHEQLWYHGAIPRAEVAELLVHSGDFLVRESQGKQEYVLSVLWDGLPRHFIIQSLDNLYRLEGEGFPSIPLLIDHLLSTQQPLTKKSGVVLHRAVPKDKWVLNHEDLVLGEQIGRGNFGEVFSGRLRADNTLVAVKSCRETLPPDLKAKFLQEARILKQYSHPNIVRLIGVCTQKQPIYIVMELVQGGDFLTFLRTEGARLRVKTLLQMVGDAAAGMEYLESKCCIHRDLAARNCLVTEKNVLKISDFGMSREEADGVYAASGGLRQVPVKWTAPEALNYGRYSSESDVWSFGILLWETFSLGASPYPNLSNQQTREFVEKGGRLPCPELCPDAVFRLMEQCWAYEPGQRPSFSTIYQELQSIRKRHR
Hck, sequence (P08631 whole entry, looked up): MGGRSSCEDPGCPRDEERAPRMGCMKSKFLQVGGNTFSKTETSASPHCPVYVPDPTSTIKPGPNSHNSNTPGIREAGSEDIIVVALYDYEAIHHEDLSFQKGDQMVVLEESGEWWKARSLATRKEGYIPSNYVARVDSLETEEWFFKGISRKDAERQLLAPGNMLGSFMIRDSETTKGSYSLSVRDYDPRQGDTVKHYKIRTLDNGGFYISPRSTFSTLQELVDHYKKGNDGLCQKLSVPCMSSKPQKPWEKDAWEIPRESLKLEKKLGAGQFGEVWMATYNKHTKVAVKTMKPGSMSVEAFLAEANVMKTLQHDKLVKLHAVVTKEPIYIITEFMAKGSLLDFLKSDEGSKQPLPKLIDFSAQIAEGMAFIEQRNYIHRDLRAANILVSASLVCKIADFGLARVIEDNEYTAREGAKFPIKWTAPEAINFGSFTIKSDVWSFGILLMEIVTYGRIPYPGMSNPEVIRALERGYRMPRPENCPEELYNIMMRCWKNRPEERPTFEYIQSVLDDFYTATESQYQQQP
Fyn, sequence (P06241 whole entry, looked up): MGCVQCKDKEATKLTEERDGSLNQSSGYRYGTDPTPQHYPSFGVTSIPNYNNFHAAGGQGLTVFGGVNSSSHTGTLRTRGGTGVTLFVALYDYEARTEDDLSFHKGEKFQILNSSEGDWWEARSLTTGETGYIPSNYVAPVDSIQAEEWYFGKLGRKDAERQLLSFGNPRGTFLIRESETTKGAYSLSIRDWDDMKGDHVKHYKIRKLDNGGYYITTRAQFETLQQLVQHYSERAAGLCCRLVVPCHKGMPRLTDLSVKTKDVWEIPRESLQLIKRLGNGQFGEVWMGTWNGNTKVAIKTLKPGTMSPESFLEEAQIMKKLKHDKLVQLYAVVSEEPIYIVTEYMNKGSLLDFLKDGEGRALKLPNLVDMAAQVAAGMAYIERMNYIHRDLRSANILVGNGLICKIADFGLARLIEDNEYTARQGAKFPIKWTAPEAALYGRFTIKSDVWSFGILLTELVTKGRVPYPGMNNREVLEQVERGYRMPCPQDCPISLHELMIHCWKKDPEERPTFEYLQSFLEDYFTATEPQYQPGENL
Grb2 SH2, sequence (P62993 whole entry, looked up): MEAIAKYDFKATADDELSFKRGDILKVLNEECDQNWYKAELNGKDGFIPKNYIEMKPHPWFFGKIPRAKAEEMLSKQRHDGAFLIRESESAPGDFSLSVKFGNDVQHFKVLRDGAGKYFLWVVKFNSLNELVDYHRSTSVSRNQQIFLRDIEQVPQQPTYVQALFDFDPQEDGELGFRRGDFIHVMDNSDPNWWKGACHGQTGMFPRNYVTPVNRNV
Jak2, sequence (O60674 whole entry, looked up): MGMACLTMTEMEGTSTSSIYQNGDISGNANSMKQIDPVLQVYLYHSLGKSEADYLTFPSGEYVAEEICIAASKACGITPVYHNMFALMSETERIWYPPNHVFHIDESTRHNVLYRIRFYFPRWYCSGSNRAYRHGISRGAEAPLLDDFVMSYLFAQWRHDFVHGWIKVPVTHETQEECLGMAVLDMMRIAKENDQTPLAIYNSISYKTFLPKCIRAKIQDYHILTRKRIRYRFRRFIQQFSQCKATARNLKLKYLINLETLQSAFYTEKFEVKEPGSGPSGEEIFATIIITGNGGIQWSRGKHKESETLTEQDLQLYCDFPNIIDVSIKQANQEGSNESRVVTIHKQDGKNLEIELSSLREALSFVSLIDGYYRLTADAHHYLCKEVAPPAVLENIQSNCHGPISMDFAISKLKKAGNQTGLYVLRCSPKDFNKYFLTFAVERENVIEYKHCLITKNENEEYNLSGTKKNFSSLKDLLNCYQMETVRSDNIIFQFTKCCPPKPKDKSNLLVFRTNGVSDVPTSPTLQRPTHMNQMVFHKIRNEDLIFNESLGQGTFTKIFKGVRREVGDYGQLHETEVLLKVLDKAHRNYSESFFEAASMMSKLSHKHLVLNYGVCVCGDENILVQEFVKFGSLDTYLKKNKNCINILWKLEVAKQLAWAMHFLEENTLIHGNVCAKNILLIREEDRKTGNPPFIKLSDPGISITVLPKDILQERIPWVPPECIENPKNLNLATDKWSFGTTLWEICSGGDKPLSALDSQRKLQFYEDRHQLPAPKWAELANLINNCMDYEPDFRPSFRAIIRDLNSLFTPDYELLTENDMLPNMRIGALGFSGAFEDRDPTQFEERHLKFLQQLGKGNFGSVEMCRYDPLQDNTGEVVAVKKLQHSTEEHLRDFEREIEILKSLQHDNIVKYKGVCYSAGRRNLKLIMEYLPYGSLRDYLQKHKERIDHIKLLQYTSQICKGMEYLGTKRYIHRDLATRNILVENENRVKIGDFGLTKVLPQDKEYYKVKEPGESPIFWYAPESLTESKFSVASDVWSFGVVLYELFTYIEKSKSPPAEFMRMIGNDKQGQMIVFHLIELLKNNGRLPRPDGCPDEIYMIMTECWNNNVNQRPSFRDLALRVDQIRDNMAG

Sequence | SH2 binding enrichment [1] | SH2 binding enrichment [2] | SH2 binding enrichment [3] | phosphorylation enrichment [4] | phosphorylation enrichment [5] | phosphorylation enrichment [6] | phosphorylation enrichment [7] | phosphorylation enrichment [8] | phosphorylation enrichment [9] | phosphorylation enrichment [10] | phosphorylation enrichment [11] | phosphorylation enrichment [12] | phosphorylation enrichment [13] | phosphorylation enrichment [14] | phosphorylation enrichment [15] | phosphorylation enrichment [16]
DYSLKYPTDIP [APC_Y1183_A1184P] | 0.765 | 0.666 | 0.438 | 0.442 | 0.476 | 0.867 | 0.866 | 0.691 | 0.52 | 0.534 | 0.503 | 0.478 | 0.618 | 0.852 | 0.844 | 0.549
VHNLDYYKQTT [FGFR3_Y647_K650Q] | 0.984 | 0.752 | 0.49 | 0.697 | 0.525 | 0.934 | 1.34 | 1.36 | 0.555 | 0.586 | 0.485 | 0.617 | 0.686 | 0.945 | 0.955 | 0.607
LSIWPYLQKID [MFSD8_Y63_M58L] | 1.23 | 1.1 | 0.797 | 0.686 | 0.577 | 1.16 | 0.85 | 0.584 | 0.6 | 0.501 | 0.566 | 0.759 | 0.929 | 1.43 | 1.37 | 0.6
TARWEYMHSPS [CPOX_Y429] | 1.25 | 0.778 | 0.688 | 1.14 | 0.334 | 0.927 | 0.69 | 0.536 | 0.363 | 0.387 | 0.356 | 0.624 | 0.965 | 1.23 | 2.01 | 1.08
RVEDACILTCN [CCT6A_Y229_Y229C] | 0.85 | 0.738 | 0.657 | 0.727 | 0.571 | 0.994 | 0.968 | 0.708 | 0.86 | 0.551 | 0.751 | 0.688 | 0.622 | 1.18 | 1.12 | 0.683
AIIGIYILRDN [CDH23_Y2949_D2954N] | 1.44 | 1.42 | 0.987 | 1.68 | 0.596 | 1.36 | 0.793 | 0.604 | 0.888 | 0.925 | 1.6 | 0.631 | 0.687 | 1.05 | 1.39 | 0.423
PDGHEYIFVDP [PDGFRA_Y572_YF] | 0.662 | 0.761 | 1.65 | 0.495 | 0.576 | 2.01 | 1.99 | 2.86 | 0.466 | 0.712 | 0.54 | 0.719 | 0.644 | 0.73 | 1.04 | 0.311
CEAVEYLESKQ [BTK_Y511_M509V] | 0.929 | 0.643 | 0.539 | 0.52 | 0.564 | 1.3 | 0.875 | 0.534 | 0.738 | 0.443 | 0.613 | 0.802 | 0.546 | 1.32 | 1.41 | 0.384
AFLLLYFNDTH [BMP15_Y235] | 1.01 | 0.79 | 0.566 | 0.486 | 0.525 | 1.15 | 0.915 | 0.49 | 1.16 | 0.445 | 0.482 | 0.496 | 0.761 | 1.26 | 1.41 | 0.43
RNIQQHNSFVS [PRKAR1A_Y373_Y373H] | 0.806 | 0.694 | 0.557 | 0.367 | 0.379 | 0.601 | 0.448 | 0.42 | 0.438 | 0.443 | 0.378 | 0.343 | 0.604 | 0.461 | 0.451 | 0.329
EAESWYQTKYE [KRT75_Y342] | 0.858 | 0.437 | 0.547 | 0.62 | 0.505 | 1.15 | 0.752 | 0.491 | 0.686 | 0.546 | 0.545 | 0.655 | 0.641 | 1.07 | 1.21 | 0.505
ADKAAYLQSMN [MYH2_Y389_L393M] | 0.788 | 0.525 | 0.449 | 0.459 | 0.411 | 0.499 | 0.654 | 0.47 | 0.591 | 0.415 | 0.436 | 0.419 | 0.545 | 0.609 | 0.761 | 0.366
YGGLRCGYGVL [KRTAP20-2_Y13_Y13C] | 0.829 | 0.642 | 0.569 | 1.05 | 0.473 | 0.857 | 0.632 | 0.826 | 0.589 | 1 | 1.5 | 0.543 | 0.623 | 0.794 | 1.01 | 0.369
HNMPIYEGYAL [ACTA1_Y168_V165M] | 0.71 | 0.893 | 2.93 | 10.4 | 17.4 | 1.3 | 0.654 | 0.465 | 11.3 | 13.1 | 13.5 | 25.5 | 19.7 | 0.831 | 2.64 | 11
FRIDHYLGKEM [G6PD_Y202_YF] | 0.932 | 0.607 | 0.625 | 0.32 | 0.41 | 0.808 | 0.671 | 0.455 | 0.54 | 0.427 | 0.49 | 0.41 | 0.448 | 0.675 | 1.63 | 0.371
DRSSLYLVAGP [KIAA1614_Y1083_N1078D] | 0.781 | 0.685 | 0.519 | 0.749 | 0.615 | 1.25 | 0.665 | 0.593 | 0.652 | 0.523 | 0.842 | 0.833 | 0.709 | 1.08 | 1.13 | 1.33
LGRGKYSEVFE [CSNK2A1_Y50] | 0.739 | 0.701 | 1.44 | 0.704 | 0.478 | 1.01 | 0.805 | 0.685 | 0.924 | 1.19 | 0.768 | 0.798 | 0.514 | 0.929 | 1.19 | 0.753

Sequence | SH2 binding enrichment [1] | SH2 binding enrichment [2] | SH2 binding enrichment [3] | phosphorylation enrichment [4] | phosphorylation enrichment [5] | phosphorylation enrichment [6] | phosphorylation enrichment [7] | phosphorylation enrichment [8] | phosphorylation enrichment [9] | phosphorylation enrichment [10] | phosphorylation enrichment [11] | phosphorylation enrichment [12] | phosphorylation enrichment [13] | phosphorylation enrichment [14] | phosphorylation enrichment [15] | phosphorylation enrichment [16]
KLFFIYTPGTT [SLC27A4_Y245_S247P_YF] | 0.598 | 0.565 | 0.39 | 0.46 | 0.521 | 1.49 | 0.877 | 0.553 | 0.848 | 0.447 | 0.509 | 0.675 | 0.637 | 1.45 | 1.49 | 0.363
PQAVTYAKVKH [LILRB4_Y360] | 0.759 | 82.1 | 2.6 | 0.708 | 0.424 | 0.405 | 0.334 | 0.398 | 0.573 | 0.294 | 0.509 | 0.286 | 0.421 | 0.577 | 0.515 | 0.339
RKPDIYGRLAS [MCM4_Y459_E460G] | 1.16 | 0.764 | 1.02 | 2.24 | 0.747 | 0.628 | 1.05 | 0.757 | 0.67 | 4.7 | 5.06 | 0.545 | 0.513 | 0.535 | 0.807 | 0.753
ARKRKYFKKHE [NFIX_Y40] | 0.911 | 0.409 | 0.259 | 0.56 | 0.281 | 0.602 | 0.591 | 0.554 | 0.64 | 0.561 | 0.605 | 0.535 | 0.511 | 0.477 | 0.653 | 0.472
SHNELYFEAAE [VANGL1_Y344_E347A_YF] | 0.763 | 0.614 | 0.544 | 0.522 | 0.476 | 1.11 | 1.1 | 1.13 | 0.624 | 0.591 | 0.656 | 0.733 | 0.509 | 0.781 | 1.04 | 0.543
VKKNRYKDILP [PTPN12_Y64] | 0.753 | 0.704 | 0.766 | 0.653 | 0.511 | 0.709 | 0.769 | 0.519 | 0.874 | 0.466 | 0.507 | 0.471 | 0.47 | 0.839 | 0.988 | 0.592
MFRAGYDTKQE [F10_Y407_C404R] | 0.796 | 0.872 | 0.5 | 0.332 | 0.391 | 0.671 | 0.448 | 0.379 | 0.497 | 0.395 | 0.383 | 0.447 | 0.475 | 0.589 | 0.761 | 0.335
AAVNGYVFGGG [ECHS1_Y137_A138V] | 0.791 | 0.994 | 0.489 | 0.461 | 0.414 | 0.596 | 0.629 | 0.437 | 0.582 | 0.404 | 0.429 | 0.398 | 0.419 | 0.591 | 0.542 | 0.401
RESFKYLPSSL [CXXC1_Y218_F219L_YF] | 0.919 | 0.455 | 0.353 | 0.429 | 0.347 | 0.561 | 0.431 | 0.329 | 0.567 | 0.469 | 0.381 | 0.395 | 0.512 | 0.837 | 0.862 | 0.286
IHFAIYFLKYS [ARMC9_Y107_L108F] | 1.18 | 1.22 | 1.11 | 0.585 | 0.586 | 1.21 | 1.01 | 0.666 | 1.09 | 0.723 | 0.787 | 0.718 | 0.789 | 1.73 | 1.41 | 0.529
VVEYGYEFFAK [PPP1CB_Y254_D252Y] | 0.942 | 0.675 | 0.946 | 0.719 | 0.835 | 2.57 | 0.995 | 0.762 | 1.09 | 0.609 | 0.72 | 0.82 | 0.798 | 1.47 | 1.56 | 0.601
QKPLDYFRVNL [GALE_Y104_YF] | 1.05 | 0.68 | 0.747 | 0.711 | 0.643 | 1.41 | 4.41 | 7.69 | 0.905 | 0.58 | 0.647 | 0.636 | 1 | 8.52 | 1.59 | 0.647
PYSSPYENSLI [EPOR_Y489_N487S] | 2.51 | 0.773 | 5.18 | 0.875 | 2.52 | 0.83 | 0.506 | 0.527 | 0.902 | 0.668 | 0.705 | 0.596 | 0.39 | 0.929 | 0.924 | 0.683
RESFKYFPSSL [CXXC1_Y218_YF] | 0.955 | 0.565 | 0.367 | 0.852 | 0.295 | 0.748 | 0.547 | 0.543 | 0.454 | 0.435 | 0.4 | 0.421 | 0.424 | 0.612 | 0.567 | 0.421
RMETEYGPSVT [MXRA5_Y2717] | 1.07 | 0.622 | 0.584 | 0.787 | 0.408 | 0.937 | 0.718 | 0.91 | 0.92 | 0.823 | 0.752 | 0.929 | 0.779 | 0.985 | 1.01 | 0.54
NIQKKYFRAIL [CHD7_Y1217_YF] | 0.96 | 0.838 | 0.566 | 0.335 | 0.399 | 0.625 | 0.433 | 0.436 | 0.43 | 0.352 | 0.421 | 0.383 | 0.37 | 0.718 | 0.655 | 0.458
